Publication PMC7442695 (Nature, 2020)

Target: SARS-CoV-2 receptor binding domain (RBD; residues 331–524) (SARS-CoV-2, early isolate (GenBank …, UniProt P0DTC2)
Test: BLI

| Binder | binding result |
| --- | --- |
| C119 monoclonal antibody (IgG) (antibody, V domains shown) VH: QVQLVQSGAEVKKPGASVKVSCKASGYTFTSYYMHWVRQAPGQGLEWMGIINPSGGSTSYAQKLQGRVTMTRDTSTSTVYMELSSLRSEDTAVYYCARANHETTMDTYYYYYYMDVWGKGTTVTVSS VL: QSALTQPASVSGSPGQSITISCTGTSSDVGGYKYVSWYQRHPGKAPKLMIYDVSNRPSGVSNRFSGSKSGNTASLTISGLQAEDEADYYCSSYTSSSTSVVFGGGTQLTVL | binds |
| C101 monoclonal antibody (IgG) (antibody, V domains shown) VH: QVQLVESGGGLIQPGGSLRLSCAASGFIVSSNYMSWVRQAPGKGLEWVSVIYSGGSTFYTDSVKGRFTISRDNSKNTLYLQMNSLRAEDTAVYYCVRDYGDFYFDYWGQGTLVTVSS VL: EIVLTQSPGTLSLSPGERATLSCRASQSVSSSYLAWYQQKPGQAPRLLIYGASSRATGIPDRFSGGGSETDFTLTISRLEPEDCAVYYCQQYGSSPRTFGQGTKVEIK | binds |
| C009 monoclonal antibody (IgG) (antibody, V domains shown) VH: not shown VL: QSALTQPPSASGSPGQSVTISCTGTSSDVGGYNYVSWYQQHPGKAPKLMIYEVSKRPSGVPDRFSGSKSGNTASLTVSGLQAEDEAEYYCSSDAGSNNVVFGGGTKLTVL | binds |
| C121 monoclonal antibody (IgG) (antibody, V domains shown) VH: not shown VL: QSALTQPASVSGSPGQSITISCTGTSSDVGSYNLVSWYQQHPGKAPKLMIYEGSKRPSGVSNRFSGSKSGNTASLTISGLQAEDEADYYCCSYAGSSTLVFGGGTKLTVL | binds |
| C002 monoclonal antibody (IgG) (antibody, V domains shown) VH: EVQLVESGGGVVQPGRSLRLSCAASGFTFSIYGMHWVRQAPGKGLEWVAVISYDGSNKYYADSVKGRFTISRDNSKNTLYLQMNSLRAEDTAVYYCAKEGRPSDIVVVVAFDYWGQGTLVTVSS VL: not shown | binds |
